{
  "source": "the nanobody polyreactivity screen of Harvey et al. (2022)",
  "data": [
    {"assay": "yeast display, Sf9 membrane polyspecificity reagent, FACS + sequencing; frameworks hold sequencing errors", "method_in_brief": "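Using colony PCR, genes from sorted yeast display clones were amplified, then sequenced on MiSeq at 2 × 250 and filtered by CDR length. The clones had been stained with 10% biotinylated, detergent-solubilized Sf9 membrane reagent for 1 hour at 4 °C and sorted by FACS into low and high (top ~1%) gates on anti-HA and streptavidin fluorescence. Polyreactivity labels come from the gate of origin.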", "values": [
      {"sequence": "QVQLVESGGGLVQAGGSLRLSCAASGITFTGFAMGWYRQAPGKERELVAAITWSSGSTYYADSVKGRFTISRDNAKNTVYLQMNSLKPEDTAVYYCNAGYWYDGPDYIPEYDYWGQGTQVTVSS", "polyreactivity (PSR sort gate)": "low polyreactivity"},
      {"sequence": "QVQLVESGGGLVQAGGSLRLSCAASGITFTGYAMGWYRQAPGKERELVAAITWSSGSTYYADSVKGRFTISRDNAKNTVYLQMNSLKPEDTAVYYCNTDYGRYLYYRYGYWGQGTQVTVSS", "polyreactivity (PSR sort gate)": "low polyreactivity"},
      {"sequence": "QVQLVESGGGLVQAGGSLRLSCAASGITFTKYVMRWYRQAPGKERELVATIRWGASSTHYADSVKGRFTISRDNAKNTVYLQMNSLKPEDTAVYYCNADGWYGAVYWWFYGFDYWGQGTQVTVSS", "polyreactivity (PSR sort gate)": "low polyreactivity"},
      {"sequence": "QVQLVESGGGLVQAGGSLRLSCAASGITFTQYAMGWYRQAPGKERELVAAISKRGGRTYYADSVKGRFTISRDNAKNTVYLQMNSLKPEDTAVYYCATVPYGEVDYWGQGTQVTVSS", "polyreactivity (PSR sort gate)": "high polyreactivity"},
      {"sequence": "QVQLVESGGGLVQAGGSLRLSCAASGITFTRNAMGWYRQAPGKERELVAVITSSGRTKYADSVKGRFTISRDNAKNTVYLQMNSLKPEDTAVYYCAKVLFGTVPYGYWGHGTQVTVSS", "polyreactivity (PSR sort gate)": "high polyreactivity"},
      {"sequence": "QVQLVESGGGLVQAGGSLRLSCAASGITFTSYAMGWYRQAPGKERELVAAISWSGDRTYYADSVKGRFTISRDNAKNTVYLQMNSLKPEDTAVYYCAAEWVSPWTGPGFDYWGQGTQVTVSS", "polyreactivity (PSR sort gate)": "high polyreactivity"},
      {"sequence": "QVQLVESGGGLVQAGGSLRLSCAASGITFTTYAMGWYRQAPGKERELVATINRGSRTNYADSVKGRFTISRDNAKNTVYLQMNSLKAEDTAVYYCAAHYTTFIPSPDGDYLGQGTQVTVSS", "polyreactivity (PSR sort gate)": "low polyreactivity"},
      {"sequence": "QVQLVESGGGLVQAGGSLRLSCAASGITFTYYAMGWYRQAPGKVRELVAGISSGTRTYYADSVKGRFTISRDNAKNTVYLQMNSLKPEDTAVYYCAARTGSRYSRGDYWGHGTQVTVSS", "polyreactivity (PSR sort gate)": "high polyreactivity"},
      {"sequence": "QVQLVESGGGLVQAGGSLRLSCAASGITFVDYDMGWYRQAPGKERELVAAITTGSSTYYADSVKGRFTISRDNAKNTVYLQMNSLKPEDTAVYYCARVFEYDYYQQWSYGYWGQGTQVTVSS", "polyreactivity (PSR sort gate)": "low polyreactivity"},
      {"sequence": "QVQLVESGGGLVQAGGSLRLSCAASGITFVFYAMGWYRQAPGKERELVAAISTGGSTNYADTVKGRFTISRDNAKNTVYFQMNSLKPEDTAVYYCAAQYFISISKYDYWGQGTQVTVSS", "polyreactivity (PSR sort gate)": "low polyreactivity"},
      {"sequence": "QVQLVESGGGLVQAGGSLRLSCAASGITFVGYAMGWYRQAPGKERELVAVINTSSSTYYADSVKGRFTISRDNAKNTVYLQMNSLKPVDTAVYYCADYAYYRYFIPAVLYDYWGQGTQVTVSS", "polyreactivity (PSR sort gate)": "low polyreactivity"},
      {"sequence": "QVQLVESGGGLVQAGGSLRLSCAASGITFVHYAMGWSRQAPGKERELVAAITVGDGGTYYADSVKGRFTISRDNAKNTVYLQMNSLKPEDTAVYYCAAGFYSYSWYVKLAYGYWGQGIQVTVSS", "polyreactivity (PSR sort gate)": "low polyreactivity"},
      {"sequence": "QVQLVESGGGLVQAGGSLRLSCAASGITFVKNVMGWYRQAPGKERELVAAISTIGARTYYADSVKGRFTISRDNAKNTVYLQMNSLKPEDTAVYYCAAENYPRRPRYDYWGQGTQVTVSS", "polyreactivity (PSR sort gate)": "high polyreactivity"},
      {"sequence": "QVQLVESGGGLVQAGGSLRLSCAASGITFVRYAMGWYRQAPGKERELVAAINFSGGNTYYADSVKGRFTISRDNAKNTVYLQMNSLKPEDTAVYYCNAKRNYVRGRQGDWYIGYGYWGQGTQVTVSS", "polyreactivity (PSR sort gate)": "high polyreactivity"},
      {"sequence": "QVQLVESGGGLVQAGGSLRLSCAASGITFVRYAMGWYRQAPGKERELVAAINSDGNTYYADSVKGRFTISRDTAKNTVYLQLNSLKPEDTACYYCAAGQGAGVDYWGQGTQVTVSS", "polyreactivity (PSR sort gate)": "high polyreactivity"},
      {"sequence": "QVQLVESGGGLVQAGGSLRLSCAASGITFVYYAMGWYRQAPGKERELVAGIDWSGGSTYYADSVKGRFTISRDNAKNTVYLQMNSLKPEDTAVYYCAAEFWLSTDFYYWGQGTQVTVSS", "polyreactivity (PSR sort gate)": "high polyreactivity"},
      {"sequence": "QVQLVESGGGLVQAGGSLRLSCAASGITFVYYTMGWYRQAPGKERELVASITWDGGSTYYADSVKGRFTISRDNAKNTVYLQMNSLKPEDTAVYYCNRDRVSGGKYNYWGQGTQVTVSS", "polyreactivity (PSR sort gate)": "low polyreactivity"},
      {"sequence": "QVQLVESGGGLVQAGGSLRLSCAASGITFWQNTMGWYRQAPGKERELVAAISWTGGRTYYADSVKGRFTISRDNAKNTVYLQMNSLKPEDTAVYYCNTGHEEDEDDYWGQGTQVTVSS", "polyreactivity (PSR sort gate)": "low polyreactivity"},
      {"sequence": "QVQLVESGGGLVQAGGSLRLSCAASGITFWRYALGWYRQAPGKEMELVAASRWSGSTYADSVKGRFTISRDNAKNTVYLQMNSLKPEDTAVYYCAAYPIGGYHDMDYWGQGTQVTVSS", "polyreactivity (PSR sort gate)": "high polyreactivity"},
      {"sequence": "QVQLVESGGGLVQAGGSLRLSCAASGITFWTYAMGWYRQAPGKERELVARISKSGARTFYADSVKGRFTLSRDNAKNTVYLQMNSLKPEDTAVYYCAADFRSNYDYWGQGTQVTVSS", "polyreactivity (PSR sort gate)": "high polyreactivity"},
      {"sequence": "QVQLVESGGGLVQAGGSLRLSCAASGITFWYNAMGWYRQAPGKERELVAAITRTGSTNYADSVKGRFTISRDNAKNTVYLQMNSLKPEDTAVYYCAAYLGWPWGYYSWGQGTQVTVSS", "polyreactivity (PSR sort gate)": "high polyreactivity"},
      {"sequence": "QVQLVESGGGLVQAGGSLRLSCAASGITFWYYAMGWYRQAPGKERELVAAITRSGRTNYADSVKGRFTISRDNAKNTVYLQMNSLKPEDTAVYYCAVYLYSFSPRYYYWGQGTQVTVSS", "polyreactivity (PSR sort gate)": "low polyreactivity"},
      {"sequence": "QVQLVESGGGLVQAGGSLRLSCAASGITFWYYAMGWYRQEPGKERELVAAISSSGGRTTYADSVKGRFTISRDNAKNTVYLQMNSLKPEDTAVYYCNADRRRYQHRRGSSVYLYDYWGQGTQVTVSS", "polyreactivity (PSR sort gate)": "high polyreactivity"},
      {"sequence": "QVQLVESGGGLVQAGGSLRLSCAASGITFYAYVMGWYRQAPGKERELVAAISGGGSTYYADSVKGRFTISRDNAKNTVYLQMNSLKPEDTAVYYCNAELSFWDLGYDYWGQGTQVTVSS", "polyreactivity (PSR sort gate)": "low polyreactivity"},
      {"sequence": "QVQLVESGGGLVQAGGSLRLSCAASGITFYDNAMGWYRPAPGKEWELVAGISYDGDSTYADSVKGRFTISRDNAKNTVYLQINSLKPEDTAVYYCAALGPYDWLWAGDYWGQGTQVTVSS", "polyreactivity (PSR sort gate)": "low polyreactivity"},
      {"sequence": "QVQLVESGGGLVQAGGSLRLSCAASGITFYDNVMGWYRQAPGKERELVAAITSGGSTNYADSVKGRFTISRDNAKNTVYFQMNRLKPEDTAVYYCAAQPRVDYEFPYRYGYWGQGTQVTVSA", "polyreactivity (PSR sort gate)": "low polyreactivity"},
      {"sequence": "QVQLVESGGGLVQAGGSLRLSCAASGITFYDYAMGWYRPAPGKERELVAAINSGDSTNYADSVKGRFTISRDNAKNTVYLQMNSLKPEDTAVYYCAADRYYYSWYTIWYRERIYYWGQGTQVTVSS", "polyreactivity (PSR sort gate)": "low polyreactivity"},
      {"sequence": "QVQLVESGGGLVQAGGSLRLSCAASGITFYDYAMGWYRQAPGKERELVAAISDSGGITYYADSVKGRFTISRDNAKNTVYLQMNSLKPEDTAVYFCAAEDQLNRDYWGQGTQVTVSS", "polyreactivity (PSR sort gate)": "high polyreactivity"},
      {"sequence": "QVQLVESGGGLVQAGGSLRLSCAASGITFYDYAMGWYRQAPGKERELVASIDNSGGSTYYADSVKGRFTISRDNAKNTVYLQMNSLNPEDTAVYYCAAVSRYYFLGVAFLDDYWGQGTQVTVSS", "polyreactivity (PSR sort gate)": "high polyreactivity"},
      {"sequence": "QVQLVESGGGLVQAGGSLRLSCAASGITFYEYAMGWYRQAPGKEREFVAAIDDGDSSTYYADSVKGRFTISRDNAKNTVYLQMHSLKPEDTAVYYCNADPYYVYSLNWGDFWGQGTQVTVSS", "polyreactivity (PSR sort gate)": "low polyreactivity"},
      {"sequence": "QVQLVESGGGLVQAGGSLRLSCAASGITFYEYTMGWYRQAPGKERELVAVIRKTGGSTYYADSVKGRFTISRDNAKNTVYLQMNSLKPEDTAVYYCAARKRYQRGYWGQGTLVTVSS", "polyreactivity (PSR sort gate)": "high polyreactivity"},
      {"sequence": "QVQLVESGGGLVQAGGSLRLSCAASGITFYFNAMGWYRQAPGKERELVAAITFSGSSTYYADSVKGRFTISRDKAKNTVYLQMNSLKPEDTAVYYCAAYFTRYDFRWHTYYYWGEGTQVTVSS", "polyreactivity (PSR sort gate)": "low polyreactivity"},
      {"sequence": "QVQLVESGGGLVQAGGSLRLSCAASGITFYFNAMGWYRQAPGKERELVAVITSGGSTNYADSVKGRFTISRDNAKNTVYLQMNSLKPEDTAVYYCANDKSYSSWSAQYDYWGQGTHVTVSS", "polyreactivity (PSR sort gate)": "low polyreactivity"},
      {"sequence": "QVQLVESGGGLVQAGGSLRLSCAASGITFYFYAMGWSRQAPGKERELVSTISGGGSTSYADSVKGRFTISRDNAKNSVYLQMNSLKPEDTAVYYCAATGYSLRSGKRRPLRSGYYYWGQGTQVTVSW", "polyreactivity (PSR sort gate)": "high polyreactivity"},
      {"sequence": "QVQLVESGGGLVQAGGSLRLSCAASGITFYFYAMGWYRQAPGKERELVASITSSGSTDYADSVKGRFTISRDNAKNTVYLQMNSLKPEDTAVYYCAADVQNHFYSFGDERGFPFDYWGQGTQVTVSS", "polyreactivity (PSR sort gate)": "low polyreactivity"},
      {"sequence": "QVQLVESGGGLVQAGGSLRLSCAASGITFYGNAMGWYRQAPGTERELVAAITGGGGTNYADSVKGRFTISRDNAKNTVYLQMNSLKPEDTAVYYCNRDYFVWFQRGQYKRGSSWYDYWGQGTQVTVSS", "polyreactivity (PSR sort gate)": "low polyreactivity"},
      {"sequence": "QVQLVESGGGLVQAGGSLRLSCAASGITFYGYAMGWSRPAPGKERELVAVITSSGSSTYYADSVKGRFTISRDKAKNTVYVQMNSLKPEDTAVYDCNARPGRRSLRSRTYDYWGQGTQVTVSS", "polyreactivity (PSR sort gate)": "high polyreactivity"},
      {"sequence": "QVQLVESGGGLVQAGGSLRLSCAASGITFYGYAMGWYRQAPGKERELVAAISGNGGRTYYADSVKGRFTISRDNAKNTVYLQMNSLKPEDTAVYYCNVKVRSRRTGDRYDYWGQGTQVTVSS", "polyreactivity (PSR sort gate)": "high polyreactivity"},
      {"sequence": "QVQLVESGGGLVQAGGSLRLSCAASGITFYGYAMGWYRQAPGKERELVAAISKSGGSTHYADSVKGRFTISRDNAKNTVYLQMNSLKPEDTAVYYCAAAYWTRLRRMDYWGQGTQVTVSS", "polyreactivity (PSR sort gate)": "low polyreactivity"},
      {"sequence": "QVQLVESGGGLVQAGGSLRLSCAASGITFYGYAMGWYRQAPGKERELVARISSGGTTKYADSVKGRFTISRDNAKNTVYLQMNSLKPEDTAVYYCAVGGSWWYYGFYYWGQATQVTVSS", "polyreactivity (PSR sort gate)": "high polyreactivity"},
      {"sequence": "QVQLVESGGGLVQAGGSLRLSCAASGITFYGYAMGWYRQAPGKERELVARITISGRTNYADYVKGRFTISRDNAKNTVYLQMNSLKPEDTAVYYCATLVHWSYPYYYWGQGTQVTVSS", "polyreactivity (PSR sort gate)": "high polyreactivity"},
      {"sequence": "QVQLVESGGGLVQAGGSLRLSCAASGITFYGYAMGWYRQAPGKERELVASINSTGSTNYADSVKGRFTISRDNAKNTVYLQMNSLKPDDTAVYYCAARYRDGYRSKRKFGYWGQGTQVTVSS", "polyreactivity (PSR sort gate)": "high polyreactivity"},
      {"sequence": "QVQLVESGGGLVQAGGSLRLSCAASGITFYGYAMGWYRQAPGKERELVAVITSSGSSTYYADSVKGRFTISRDNAKNTVYLQMNSLTPEDTAVYYCNARPGRRSLRSRTYDYWGQGTQVTVSS", "polyreactivity (PSR sort gate)": "high polyreactivity"}
    ]}
  ]
}
